# ± gives the uncertainty stated by the source.
# B1: Calcium-binding protein 2, residues 155 to 219; numbered along this chain, Q9NPB3 (parent)
# chain: RELRDAFREFDTNGDGRISVGELRAALKALLGERLSQREVDEILQDVDLNGDGLVDFEEFVRMMS
# Variants of: B1
# Assay: abundance fitness (aPCA) (normalised: wild type 0, dead -1); higher = more abundant; growth selection in yeast, the domain comes from the species named
# Settings: Homo sapiens
row,Variant,abundance fitness
1,RELRDAFREFDTNGDGRFSVGELRAALKALLGERLSQREVDEILQDVDLNGDGLVDFEEFVRMMS,-0.747 ± 0.16
2,RELRDAFREFDTNGDGRISVGELRAALKALLGERLSQLEVDEILQDVDLNGDGLVDFEEFVRMMS,-0.053 ± 0.068
3,CELRDAFREFDTNGDGRISVGELRAALKALLGERLSQREVDEILQDVDLNGDGLVDFEEFVRMMS,-0.26 ± 0.16
4,RELRDAFREIDTNGDGRISVGELRAALKALLGERLSQREVDEILQDVDLNGDGLVDFEEFVRMMS,-0.038 ± 0.11
5,RELRDAFREFDTNGDGRISVGELRAALKALLGERLSQREVDEILQDVDLNGDGLVDFEEFSRMMS,0.128 ± 0.076
6,RELRDAFREFDTNGDGRISVGELRAALKALLGERLSQREVDEILQDVDLNGDGLVDFEEFIRMMS,-0.149 ± 0.17
7,RELRDAFREFDTNGDGRISVGELRAALKALLGERLSQREVDEILQDVDLNGDGLVDFEEFYRMMS,-0.013 ± 0.2
8,RELRDAFREFDTNGDGRISVGELRAALKALLGERLSQREVDEFLQDVDLNGDGLVDFEEFVRMMS,-0.282 ± 0.29
9,RELRDAFREFDTNGDGRISVGELRAALKALLGERLSQREVDEVLQDVDLNGDGLVDFEEFVRMMS,0.01 ± 0.084
10,RELRDAFREFDTNGDGRISVGELRAALKALLGERLSQREVDEKLQDVDLNGDGLVDFEEFVRMMS,0.053 ± 0.067
11,RELEDAFREFDTNGDGRISVGELRAALKALLGERLSQREVDEILQDVDLNGDGLVDFEEFVRMMS,0.217 ± 0.27
12,RELRDAFREFDTNGDGRISVGELRAALKALLGIRLSQREVDEILQDVDLNGDGLVDFEEFVRMMS,-0.074 ± 0.16
13,RELRDAFREFDTNGDGRISVGELRAALKALLGERLSQREVDEILQDVDLNGDGLVDFEQFVRMMS,-0.025 ± 0.097
14,RELRDAFREFDRNGDGRISVGELRAALKALLGERLSQREVDEILQDVDLNGDGLVDFEEFVRMMS,-0.201 ± 0.056
15,RELRDAFREFDMNGDGRISVGELRAALKALLGERLSQREVDEILQDVDLNGDGLVDFEEFVRMMS,-0.349 ± 0.087
16,RELRDAFREFRTNGDGRISVGELRAALKALLGERLSQREVDEILQDVDLNGDGLVDFEEFVRMMS,-1.18 ± 0.11
17,RELRDAFREFDTNGDGRISQGELRAALKALLGERLSQREVDEILQDVDLNGDGLVDFEEFVRMMS,-0.005 ± 0.081
18,RELRDAFREFDTNGDGRISVGELRAALKALLGERLSQREVDEIKQDVDLNGDGLVDFEEFVRMMS,0.055 ± 0.14
19,RELRDAFREFDTNGDGRISVGELRAALKALLGERLSQREVDGILQDVDLNGDGLVDFEEFVRMMS,-0.081 ± 0.052
20,RERRDAFREFDTNGDGRISVGELRAALKALLGERLSQREVDEILQDVDLNGDGLVDFEEFVRMMS,-0.729 ± 0.073
21,RELRDAFREFDTNGDGRISVGELRAALKCLLGERLSQREVDEILQDVDLNGDGLVDFEEFVRMMS,-0.31 ± 0.3

row,Variant,abundance fitness
1,RELRDAFREFDTNGDGRISVGELRAALKGLLGERLSQREVDEILQDVDLNGDGLVDFEEFVRMMS,-0.135 ± 0.053
2,RELRDAFREFDTNGDGRISVGELRAALKQLLGERLSQREVDEILQDVDLNGDGLVDFEEFVRMMS,-0.04 ± 0.11
3,RELRDAFREFDTNGDGRISVGELRAALKALLGERLSQREVDEILQDVDLNGDGLVDFEEFVDMMS,0.077 ± 0.21
4,RELRDAFREFDTNGDGRISVGELRANLKALLGERLSQREVDEILQDVDLNGDGLVDFEEFVRMMS,-0.266 ± 0.16
5,RELRDAFREFDTNGDGRISVGELRAARKALLGERLSQREVDEILQDVDLNGDGLVDFEEFVRMMS,-0.192 ± 0.057
6,RELRDAFREFDTNGDGRISVGELRAALKALLGERLSQREVDEILQDVDLNGLGLVDFEEFVRMMS,-0.108 ± 0.062
7,RELRDAFREFDTNGDGRISVGELRAALKALLGERLSQREVDEILQDVDLNGTGLVDFEEFVRMMS,-0.196 ± 0.097
8,RELRDAFREFDTNGDGRISVGELRAALKALLGERLSQREVDEILQDVDLNGDGCVDFEEFVRMMS,-0.21 ± 0.14
9,RELRDAFREFDTNGDGRIVVGELRAALKALLGERLSQREVDEILQDVDLNGDGLVDFEEFVRMMS,-0.517 ± 0.061
10,RELRDAFREFDTNGDGRIHVGELRAALKALLGERLSQREVDEILQDVDLNGDGLVDFEEFVRMMS,-0.459 ± 0.16
11,RELRDAFREFDTNGDGRISVGELRAALKALLGERLSQREVDEILQDDDLNGDGLVDFEEFVRMMS,-0.236 ± 0.053
12,RELRDAFREFDTNGDGRISVGELRAALKALLGERLSQREVDEILQDYDLNGDGLVDFEEFVRMMS,-0.01 ± 0.058
13,RELRDAFREFDTNGDGRISVGELRAALKALLGEMLSQREVDEILQDVDLNGDGLVDFEEFVRMMS,-0.207 ± 0.088
14,RELRDAFVEFDTNGDGRISVGELRAALKALLGERLSQREVDEILQDVDLNGDGLVDFEEFVRMMS,-0.162 ± 0.054
15,RELRDAFREFDTNGDGRISVLELRAALKALLGERLSQREVDEILQDVDLNGDGLVDFEEFVRMMS,-0.049 ± 0.043
16,RELRDAFREFDTNGDGRISVTELRAALKALLGERLSQREVDEILQDVDLNGDGLVDFEEFVRMMS,0.01 ± 0.069
17,RELRDAFREFDTNGDGRISVGELRAALKALLGERLSQREVDEILQDVDLNGDGLFDFEEFVRMMS,0.048 ± 0.063
18,RELRDAFREFDTNGDGRISVGELRAALKALLGERLSQREVDEILQDVDLTGDGLVDFEEFVRMMS,-0.022 ± 0.084
19,RELRDAFREFDTNGDGRISVGELRAALKALLGERLSQREVDEILQDVDLFGDGLVDFEEFVRMMS,-0.346 ± 0.14
20,RELRDAFREFDTNGDGRISVGELRAALKALLGERLSQREVDEILQDVDLAGDGLVDFEEFVRMMS,-0.056 ± 0.077
21,RELRDAFREFDTNGDGRISVGELRAALKALLGERLSQREVDEILQDVDLEGDGLVDFEEFVRMMS,-0.19 ± 0.061

# Source: the Human Domainome abundance scans (Beltran et al. 2025)
